Test results published in patent US20160166634A1 (Novartis, published 2016).

Molecular target: human APJ receptor (hAPJ) (human) (UniProt P35414)
Assay: cell-based or functional assay

human APJ receptor (hAPJ) (human), sequence (P35414 whole entry): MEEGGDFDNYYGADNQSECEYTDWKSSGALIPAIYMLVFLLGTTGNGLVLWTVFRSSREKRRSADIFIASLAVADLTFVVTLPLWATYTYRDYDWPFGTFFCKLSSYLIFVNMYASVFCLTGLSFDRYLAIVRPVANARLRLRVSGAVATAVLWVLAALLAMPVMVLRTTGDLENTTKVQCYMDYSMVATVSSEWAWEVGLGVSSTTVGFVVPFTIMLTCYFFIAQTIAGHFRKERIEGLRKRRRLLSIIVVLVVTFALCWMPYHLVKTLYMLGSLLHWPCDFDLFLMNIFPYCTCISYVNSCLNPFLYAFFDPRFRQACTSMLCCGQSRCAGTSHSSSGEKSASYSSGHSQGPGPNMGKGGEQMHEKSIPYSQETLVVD

| Substance | hAPJ Ca2+ Flux EC50 [nM] |
| --- | --- |
| Example 1: Albumin-MPA-O2Oc-O2Oc-O2Oc-O2Oc-Q-R-P-R-L-C*-H-F-G-P-Nle-C*-f-OH (from UniProt P02768 25-609) | 47.2 |
| Example 2: Albumin-TPA-O2Oc-O2Oc-O2Oc-O2Oc-Q-R-P-R-L-C*-H-F-G-P-Nle-C*-f-OH (from UniProt P02768 25-609) | 92.4 |
| Example 3: Albumin-MPA-NHCH2CH2CH2-OCH2CH2OCH2CH2O-CH2CH2CH2NH-C(O)CH2CH2C=O-A-R-P-R-L-S-H-K-G-P-Nle-P-F-OH (from UniProt P02768 25-609) | 52 |
